{
  "source": "paper doi:10.1101/2022.05.20.492803",
  "target": "GST protein (free GST, cleaved from GST-tagged proteins)",
  "assay": "SAXS",
  "data": [
    {"substance": "GST protein (free GST, cleaved from GST-tagged proteins) (enzyme)", "values": [
      {"measurement": "stoichiometry N", "result": 2}
    ]}
  ]
}
